Results on 1 molecule are retold here after publication PMC7182444 (Science (New York, N.Y.), 2020).

Data set [1] concerns the molecule itself. Kind of data set: SDS-PAGE and SDD-AGE with western blotting.
For data set [2], the target named is Orb2 filaments purified from adult heads (Drosophila melanogaster (endogenous in …, UniProt Q9VSR3 1-704)). Nature of the data set: seeded aggregation.

B1: Orb2 (Drosophila CPEB) purified from adult heads (natural protein)
chain: MDSLKLPKANSATSSASGSNSNLSGSTSASASAATSPTSSGTAVGGILSGAPKSPPGLGSSTPISVRFNANEESLDDILQSFHHSKHSPSGGASGGGDASPTSNLLGMKNNGLGLVVGNCDSLSSSPSQPQMHAGSASLFGNDEVSLRNNFMQAGGFFNRKSCGGLPNLNLNKPPQLHQQQHQQQHQQHQQHQQQQQLHQHQQQLSPNLSALHHHHQQQQQLRESGGSHSPSSPGGGGGGSPYNGSQAGCSSGGISPIPPQMGVSPKYRRSISFPIKGNSPTAIYGNMHMDGMGSGHMNIPTLSIGNGGGGGSTGMVSAGATGGGDAPYLGNSYGNMMTSNGQMHHGGGLDNSLCDYMRNMSLGGNGGGDGSNSMSLMQDRMRVMGGPKHLSEADAMAIAASGNDPSVYLNALKMGSPSRLSPHSPHSPIQGGNGGNVGDGTARFSRKVFVGGLPPDIDEDEITTSFRRFGPLVVDWPHKAESKSYFPPKGYAFLLFQDESSVQQLIDSCITDEDKLYLCVSSPTIKDKAVQIRPWRLADADYVLDATMSLDPRKTVFVGGVPRPLKAFELAMIMDRLYGGVCYAGIDTDPELKYPKGAGRVAFSNQQSYIAAISARFVQLQHGDIDKRVEVKPYVLDDQMCDECEGQRCGGKFAPFFCANVTCLQYYCEHCWAVIHSRPGREYHKPLVKEGADRPRAVPFRWC
With B1, the binding result in data set [1] and in data set [2] was “binds” throughout.
